Measurements as given in paper PMC7781312 (bioRxiv, 2021).
Non-standard residues stand in square brackets, D forms with d. Primed or numbered codes have the meaning given here. No end group written: not given here. PEG6′ = PEG spacer between stem peptide and Lys-biotin; Biotin′ = not defined here

Experiments:
[1] = biological target: T1, biotinylated mouse hepatitis virus S stem helix peptide (Murine hepatitis virus A59 (P11224), UniProt P11224); test: BLI
T1 chain: DFKEELDKWFKNQTS[PEG6′]K-{Biotin′}

[2] = biological target: T2, biotinylated MERS-CoV S stem helix peptide (MERS-CoV EMC/2012 (AFS88936), UniProt K0BRG7); test: BLI
T2 chain: DFQDELDEFFKNVST[PEG6′]K-{Biotin′}

[3] = biological target: T3, biotinylated HKU4 S stem helix peptide (Bat coronavirus HKU4 (A3EX94), UniProt A3EX94); test: BLI
T3 chain: DFKDELEEFFKNVTS[PEG6′]K-{Biotin′}

[4] = biological target: T4, biotinylated HKU5 S stem helix peptide (Bat coronavirus HKU5 (A3EXD0), UniProt A3EXD0); test: BLI
T4 chain: DFKEELEEFFKNVSS[PEG6′]K-{Biotin′}

[5] = biological target: T5, biotinylated OC43 S stem helix peptide (HCoV-OC43 (Q696P8), UniProt Q696P8); test: BLI
T5 chain: DFKEELDQWFKNQTS[PEG6′]K-{Biotin′}

[6] = biological target: T6, biotinylated SARS-CoV/SARS-CoV-2 S stem helix peptide (SARS-CoV-2 / SARS-CoV, identical …, UniProt P0DTC2); test: BLI
T6 chain: SFKEELDKYFKNHTS[PEG6′]K-{Biotin′}

[7] = biological target: T7, MERS-CoV S stem helix peptide, residues 1230-1244 (crystallised) (MERS-CoV, UniProt K9N5Q8); test: crystal structure
T7 chain: DFQDELDEFFKNVST

[8] = biological target: T8, HKU4 S stem helix peptide, residues 1231-1245 (crystallised) (bat coronavirus HKU4, UniProt A3EX94); test: crystal structure
T8 chain: DFKDELEEFFKNVTS

[9] = biological target: T9, MERS-CoV S stem helix peptide, residues 1230-1240 (crystallised) (MERS-CoV (EMC/2012 numbering), UniProt K9N5Q8); test: crystal structure
T9 chain: DFQDELDEFFK

[10] = biological target: T10, SARS-CoV/SARS-CoV-2 S stem helix peptide (crystallised) (SARS-CoV-2 / SARS-CoV, identical …, UniProt P0DTC2); test: crystal structure
T10 chain: SFKEELDKYFKNHTS

Measured: binding result

B1: B6 monoclonal antibody (recombinant IgG with human constant regions) (antibody, V domains shown)
VH: EVQLQQSGPVLVKPGASVRMSCKASGYTITDYYLNWVKQSHGKSLEWLGVLNPYSGGSLYSQTFKGKATLTVDRSSSTAYLELNSLTSEDSAVYYCARQLGRGNGLDYWGQGTSVTVSS
VL: NIMMTQSPSSLAVSAGEKVTMSCKSSQSVLHSSDQKNYLAWYQQKPGQSPKLLIYWASTRESGVPDRFTGSGSGTDFTLTISSVQAEDLAVYFCHQYLSSYTFGGGTKLEIK
binds: [1] | [2] | [3] | [4] | [5] | [6]

B2: B6 Fab fragment (Fab, V domains shown)
VH: B1 VH
VL: B1 VL
binds: [7] | [8] | [9] | [10] | [1] | [2] | [3] | [4] | [5] | [6]
